The data set deals with the molecule itself. As to the kind of experiment: negative-stain transmission electron microscopy of polymers; 4 µM protein with 2 mM GTP for 16 minutes in 50 mM HEPES-KOH pH 7.2, 300 mM KCl, 10 mM MgCl2, 0.1 mM EDTA; spotted on carbon coated grids, uranyl formate stain.

This is an account of results in article doi:10.1101/632075, “Determinants of FtsZ C-terminal linker-dependent regulation of cell wall metabolism in Caulobacter crescentus” (bioRxiv, 2019).

B1: Caulobacter crescentus FtsZ (natural protein, C. crescentus, UniProt B8H080 1-508, looked up)
chain: MAISLSAPRTTELKPRIVVFGVGGAGGNAVNNMIEAGLEGVEFVVANTDAQQLQFAKTDRRIQLGVQITQGLGAGAHPEVGMSAAEESFPEIGEHLDGAHMVFITAGMGGGTGTGAAPIIAKCARERGILTVGVVTKPFHFEGRHRMRLADSGIQELQRYVDTLIVIPNQNLFRVANERTTFAEAFGMADQVLHSGVRSITDLMVLPGLINLDFADVRTVMTEMGKAMMGTGEGTGEDRALMAAQNAIANPLLDEVSLKGAKAVLVNVTGGMDMTLLEVDEAANAISDQVDPEANIIFGAAFDPSLEGVIRVSVVATGMDGASIAQIEPKPVSRNISAAPLIAETSRPAPQPEPARPTARYEAARPAERPVAFAPEPAPEPEIVMSAPQPEPEAELYYDEPTVAEEPRVSAAPARSVNRIVDPLVDDVAEEPLFPENNYYEERRPQKQGGFFSMFGGGRQRYEQQASAPQAQARSAQSARPQLQPIETPQADDAEDLEIPSFLRRLAN
notes: FtsZ of Caulobacter crescentus, wild type; regions: GTPase domain, C-terminal linker (CTL), C-terminal conserved peptide (CTC); No tag is named; also called CcFtsZ; WT FtsZ; source: E. coli Rosetta(DE3)pLysS, pET21 vector, purified (anion exchange, ammonium sulfate precipitation, SEC)
For B1, the binding result was “binds”.

B2: Escherichia coli FtsZ (natural protein, E. coli, UniProt P0A9A6 1-383, looked up)
chain: MFEPMELTNDAVIKVIGVGGGGGNAVEHMVRERIEGVEFFAVNTDAQALRKTAVGQTIQIGSGITKGLGAGANPEVGRNAADEDRDALRAALEGADMVFIAAGMGGGTGTGAAPVVAEVAKDLGILTVAVVTKPFNFEGKKRMAFAEQGITELSKHVDSLITIPNDKLLKVLGRGISLLDAFGAANDVLKGAVQGIAELITRPGLMNVDFADVRTVMSEMGYAMMGSGVASGEDRAEEAAEMAISSPLLEDIDLSGARGVLVNITAGFDLRLDEFETVGNTIRAFASDNATVVIGTSLDPDMNDELRVTVVATGIGMDKRPEITLVTNKQVQQPVMDRYQQHGMAPLTQEQKPVAKVVNDNAPQTAKEPDYLDIPAFLRKQAD
notes: FtsZ of Escherichia coli, wild type; No tag is named; also called EcFtsZ; source: E. coli Rosetta(DE3)pLysS, pET21 vector, purified (anion exchange, ammonium sulfate precipitation, SEC)
For the protein B2, the binding result is listed as “binds”.
